Assay [1] addresses truncated FcRH5 (deletion of amino acids 1-744) with N-terminal gD tag, on cells (human) (UniProt Q96RD9). Kind of assay: cell-based or functional assay.
The target of assay [2] is T1, human FcRH5 (full-length, on cells) (human, UniProt Q96RD9 16-977).
T1 construct: Transfected SVT2/293 cells or endogenous expression (MOLP-2, primary cells); also called SVT2-FcRH5; SVT2-huFcRH5
T1 sequence: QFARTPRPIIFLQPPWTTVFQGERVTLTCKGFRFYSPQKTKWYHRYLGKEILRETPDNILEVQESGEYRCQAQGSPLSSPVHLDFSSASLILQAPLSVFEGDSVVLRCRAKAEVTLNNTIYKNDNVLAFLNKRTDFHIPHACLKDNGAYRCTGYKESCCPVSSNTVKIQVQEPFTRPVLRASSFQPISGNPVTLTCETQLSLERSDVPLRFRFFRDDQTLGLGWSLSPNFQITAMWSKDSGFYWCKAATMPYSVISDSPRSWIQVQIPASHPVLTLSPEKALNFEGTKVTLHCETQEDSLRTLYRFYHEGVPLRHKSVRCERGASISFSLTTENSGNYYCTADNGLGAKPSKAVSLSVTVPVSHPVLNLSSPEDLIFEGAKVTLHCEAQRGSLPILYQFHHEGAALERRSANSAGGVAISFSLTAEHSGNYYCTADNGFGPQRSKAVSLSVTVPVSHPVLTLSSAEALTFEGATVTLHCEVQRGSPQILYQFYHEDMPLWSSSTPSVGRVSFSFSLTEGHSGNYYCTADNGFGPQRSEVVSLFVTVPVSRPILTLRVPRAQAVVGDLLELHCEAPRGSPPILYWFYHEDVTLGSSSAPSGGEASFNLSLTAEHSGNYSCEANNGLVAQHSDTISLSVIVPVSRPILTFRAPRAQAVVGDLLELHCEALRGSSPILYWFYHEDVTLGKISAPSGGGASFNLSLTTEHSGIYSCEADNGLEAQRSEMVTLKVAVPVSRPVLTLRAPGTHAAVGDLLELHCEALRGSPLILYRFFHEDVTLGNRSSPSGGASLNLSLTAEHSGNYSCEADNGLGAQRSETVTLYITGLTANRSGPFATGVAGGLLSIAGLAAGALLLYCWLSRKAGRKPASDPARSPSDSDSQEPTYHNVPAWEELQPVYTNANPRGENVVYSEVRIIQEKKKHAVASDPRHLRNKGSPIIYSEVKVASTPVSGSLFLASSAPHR
Kind of assay: flow cytometry, SVT2 cells. How it is done:
(§1) Human FcRH5, cyno FcRH5, human FcRH1, FcRH2, FcRH3, and FcRH4 transfected mouse SVT2 cells were used to test binding and cross-reactivity of FcRH5 TDBs. The method was carried out as follows. Cultured SVT2 cells were lifted using non-enzyme cell dissociation buffer (Sigma, #C5914). 1×10⁵ cells were suspended in 100 μL and incubated with FcRH5 TDBs at 3 μg/ml. […] Cells were washed twice with FACS buffer before flow cytometry analysis was carried out on a FACSCalibur.

Assay [3] deals with T2, human FcRH3 (full-length, on SVT2 cells) (human, UniProt Q96P31 18-734).
T2 construct: whole, on cells; also called SVT2-FcRH3
T2 sequence (looked up): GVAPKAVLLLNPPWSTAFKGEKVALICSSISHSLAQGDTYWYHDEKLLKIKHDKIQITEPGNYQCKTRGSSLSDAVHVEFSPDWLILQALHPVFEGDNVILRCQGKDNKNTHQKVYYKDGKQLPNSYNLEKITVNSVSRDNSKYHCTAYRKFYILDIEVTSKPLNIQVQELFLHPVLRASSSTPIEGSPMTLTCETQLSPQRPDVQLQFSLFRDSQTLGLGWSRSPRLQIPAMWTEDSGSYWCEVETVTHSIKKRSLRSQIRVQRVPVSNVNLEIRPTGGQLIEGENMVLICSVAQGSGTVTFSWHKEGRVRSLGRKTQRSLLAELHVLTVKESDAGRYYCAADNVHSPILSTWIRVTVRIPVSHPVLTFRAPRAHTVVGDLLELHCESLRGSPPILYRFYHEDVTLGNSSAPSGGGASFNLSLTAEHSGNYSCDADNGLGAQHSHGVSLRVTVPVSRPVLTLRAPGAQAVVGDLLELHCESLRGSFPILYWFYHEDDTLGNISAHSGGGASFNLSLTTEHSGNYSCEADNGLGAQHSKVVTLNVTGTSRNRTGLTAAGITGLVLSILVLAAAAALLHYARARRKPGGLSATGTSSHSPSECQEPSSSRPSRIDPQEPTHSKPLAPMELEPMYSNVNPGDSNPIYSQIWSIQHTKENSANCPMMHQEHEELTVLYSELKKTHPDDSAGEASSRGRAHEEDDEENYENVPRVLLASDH
Kind of assay: flow cytometry, SVT2 cells. On the procedure:
as §1

For assay [4], the target named is T3, cynomolgus FcRH5 protein fragment (soluble) (cynomolgus monkey).
T3 construct: whole entry named; also called Cyno FcRH5 (BIACORE analyte)
T3 chain: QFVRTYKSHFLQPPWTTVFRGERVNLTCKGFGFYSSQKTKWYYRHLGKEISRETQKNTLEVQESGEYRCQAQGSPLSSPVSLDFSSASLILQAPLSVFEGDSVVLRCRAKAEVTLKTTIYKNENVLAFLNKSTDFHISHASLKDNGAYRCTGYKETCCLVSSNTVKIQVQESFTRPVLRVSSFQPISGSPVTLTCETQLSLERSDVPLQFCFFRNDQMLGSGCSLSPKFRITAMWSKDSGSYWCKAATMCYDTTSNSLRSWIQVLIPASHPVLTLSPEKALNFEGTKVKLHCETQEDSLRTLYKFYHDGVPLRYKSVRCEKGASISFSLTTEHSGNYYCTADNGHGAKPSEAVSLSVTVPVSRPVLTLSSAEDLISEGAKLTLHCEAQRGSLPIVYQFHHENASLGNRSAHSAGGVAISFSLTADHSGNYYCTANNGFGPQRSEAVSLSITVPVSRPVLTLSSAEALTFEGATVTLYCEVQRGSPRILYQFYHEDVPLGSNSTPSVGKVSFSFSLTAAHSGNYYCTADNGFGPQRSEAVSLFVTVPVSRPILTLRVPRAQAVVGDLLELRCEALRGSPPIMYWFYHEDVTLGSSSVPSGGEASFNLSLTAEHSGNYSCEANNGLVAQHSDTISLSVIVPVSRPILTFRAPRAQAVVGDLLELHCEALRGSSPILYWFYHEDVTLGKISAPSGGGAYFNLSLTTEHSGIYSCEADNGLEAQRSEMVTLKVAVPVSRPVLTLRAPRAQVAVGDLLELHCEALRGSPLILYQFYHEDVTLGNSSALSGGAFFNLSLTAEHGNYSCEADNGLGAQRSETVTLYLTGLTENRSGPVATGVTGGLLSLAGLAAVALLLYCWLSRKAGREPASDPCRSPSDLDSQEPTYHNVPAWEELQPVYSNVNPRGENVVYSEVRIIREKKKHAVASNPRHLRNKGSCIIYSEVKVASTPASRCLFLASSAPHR
Briefly: SPR (BIACORE), Cyno FcRH5, 1:1 binding model.

Assay [5] concerns the target T4, human FcRH5 protein fragment (soluble) (human, UniProt Q96RD9 16-851).
T4 construct: whole entry named; also called soluble human FcRH5; Human FcRH5 (BIACORE analyte)
T4 sequence: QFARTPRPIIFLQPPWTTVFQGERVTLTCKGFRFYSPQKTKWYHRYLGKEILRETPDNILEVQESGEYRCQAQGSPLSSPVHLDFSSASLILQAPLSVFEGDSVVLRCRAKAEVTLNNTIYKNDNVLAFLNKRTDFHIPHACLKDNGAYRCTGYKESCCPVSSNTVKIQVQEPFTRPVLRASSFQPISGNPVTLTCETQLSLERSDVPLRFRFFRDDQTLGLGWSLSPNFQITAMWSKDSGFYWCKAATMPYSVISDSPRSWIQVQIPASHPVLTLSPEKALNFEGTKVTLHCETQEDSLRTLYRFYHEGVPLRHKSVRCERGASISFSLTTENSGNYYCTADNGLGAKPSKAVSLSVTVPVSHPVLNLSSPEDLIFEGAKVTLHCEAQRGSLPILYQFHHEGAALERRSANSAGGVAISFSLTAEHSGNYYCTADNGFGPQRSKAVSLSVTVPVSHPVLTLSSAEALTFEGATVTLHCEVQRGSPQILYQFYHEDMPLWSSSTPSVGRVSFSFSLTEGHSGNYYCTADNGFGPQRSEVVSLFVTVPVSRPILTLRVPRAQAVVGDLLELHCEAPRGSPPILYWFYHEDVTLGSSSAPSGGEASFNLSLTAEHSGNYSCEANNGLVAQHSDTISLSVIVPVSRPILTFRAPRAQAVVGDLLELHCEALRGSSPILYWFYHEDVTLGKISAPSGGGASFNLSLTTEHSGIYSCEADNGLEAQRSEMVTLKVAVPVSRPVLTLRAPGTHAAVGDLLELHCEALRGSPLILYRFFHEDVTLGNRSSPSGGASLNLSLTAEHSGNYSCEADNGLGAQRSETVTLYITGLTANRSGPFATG
Briefly: SPR (BIACORE), Human FcRH5, 1:1 binding model.

In assay [6] the target is T3, cynomolgus FcRH5 protein fragment …. Kind of assay: BIACORE.
Assay [7] concerns the target T4, human FcRH5 protein fragment (soluble). Kind of assay: BIACORE.
Assay [8] shares this target. Kind of assay: SPR screening.
Assay [9] has as its target T5, human CD3ε (human, UniProt P07766 23-126, limits assumed).
T5 construct: also called hCD3ε
Kind of assay: BIACORE and Scatchard, monovalent.

Changes are numbered by the printed parent chain. Names and notes keep the numbering of the source.

T5 sequence (P07766 23-126 limits assumed): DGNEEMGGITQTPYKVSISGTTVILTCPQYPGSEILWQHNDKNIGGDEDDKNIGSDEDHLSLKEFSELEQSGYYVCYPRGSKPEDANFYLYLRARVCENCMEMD

“anti-gD/UCHT1.v9 TDB (bispecific antibody)” displayed a target cell killing with the truncated FcRH5 construct, EC50 in [1] of 0.19 nM.

B1: hu1G7.v87/38E4.v1 TDB (bispecific antibody, V domains shown)
VH 1: EVQLVESGPGLVKPSETLSLTCTVSGFSLTRFGVHWVRQPPGKGLEWLGVIWRGGSTDYNAAFVSRLTISKDNSKNQVSLKLSSVTAADTAVYYCSNHYYGSSDYALDNWGQGTLVTVSS
VL 1: DIQMTQSPSSLSASVGDRVTITCKASQDVSNIVVWFQQKPGKSPKLLIYSASYRYTGVPSRFSGSGSGTDFTLTISSLQPEDFATYYCQQHYSSPYTFGQGTKVEIK
VH 2: EVQLVQSGAEVKKPGASVKVSCKASGFTFTSYYIHWVRQAPGQGLEWIGWIYPENDNTKYNEKFKDRVTITADTSTSTAYLELSSLRSEDTAVYYCARDGYSRYYFDYWGQGTLVTVSS
VL 2: DIVMTQSPDSLAVSLGERATINCKSSQSLLNSRTRKNYLAWYQQKPGQSPKLLIYWTSTRKSGVPDRFSGSGSGTDFTLTISSLQAEDVAVYYCKQSFILRTFGQGTKVEIK
notes: knob-into-hole TDB; also called 1G7.v87 TDB
In the case of B1, the binding result in assay [2] is reported as “binds”; in assay [3], “no binding”.

B2: hu1G7.v93/38E4.v1 TDB (bispecific antibody, V domains shown)
VH 1: B1 VH 1 with L29T, S103P
VL 1: B1 VL 1 with I32L, S43A, A51G, T56S, S94P
VH 2: B1 VH 2
VL 2: B1 VL 2
notes: knob-into-hole TDB; also called 1G7.v93 TDB
Regarding B2, the Kd in [4] turned out to be 8.08 nM; in assay [6], 8.1 nM; in [7] it was 1.1 nM. For the same molecule, the results for the koff in assay [4] and in assay [5] were 0.000417 s⁻¹ and 0.000421 s⁻¹, respectively. The values for the kon in assay [4] and in assay [5] were 51600 M⁻¹ s⁻¹ and 395000 M⁻¹ s⁻¹, respectively.

B3: hu1G7.v1 with heavy chain L29T and S56T (antibody, V domains shown)
VH: B1 VH 1 with L29T, S56T, V64M
VL: B1 VL 1
notes: also called L29T/S56T double mutant
Regarding B3, the “average fold improvement in affinity” value in [8] was determined as 1.2 fold.

B4: UCHT1.v9 (antibody, V domains shown)
VH: EVQLVESGGGLVQPGGSLRLSCAASGYSFTGYTMNWVRQAPGKDLEWVALINPYKGVSTYNQKFKDRFTISVDKSKNTAYLQMNSLRAEDTAVYYCARSGYYGDSDWYFDVWGQGTLVTVSS
VL: DIQMTQSPSSLSASVGDRVTITCRASQDIRNYLNWYQQKPGKAPKLLIYYTSRLESGVPSRFSGSGSGTDYTLTISSLQPEDFATYYCQQGNTLPWTFGQGTKLELK
notes: humanized anti-CD3; also called huUCHT1.v9
Turning to B4, in assay [9], the Kd stood at 2.5 nM.
